We go through 2 substances from article PMC3177407.

pKd: −log10 of the molar value.

The target of one assay is Integrin α3β1 (UniProt P26006).
For assay [1], the target named is integrin alpha3beta1 (Homo sapiens) (UniProt P26006). To be noted: cited from earlier work.
integrin alpha3beta1 (Homo sapiens), sequence (P26006 33-991, chain 1 of 2): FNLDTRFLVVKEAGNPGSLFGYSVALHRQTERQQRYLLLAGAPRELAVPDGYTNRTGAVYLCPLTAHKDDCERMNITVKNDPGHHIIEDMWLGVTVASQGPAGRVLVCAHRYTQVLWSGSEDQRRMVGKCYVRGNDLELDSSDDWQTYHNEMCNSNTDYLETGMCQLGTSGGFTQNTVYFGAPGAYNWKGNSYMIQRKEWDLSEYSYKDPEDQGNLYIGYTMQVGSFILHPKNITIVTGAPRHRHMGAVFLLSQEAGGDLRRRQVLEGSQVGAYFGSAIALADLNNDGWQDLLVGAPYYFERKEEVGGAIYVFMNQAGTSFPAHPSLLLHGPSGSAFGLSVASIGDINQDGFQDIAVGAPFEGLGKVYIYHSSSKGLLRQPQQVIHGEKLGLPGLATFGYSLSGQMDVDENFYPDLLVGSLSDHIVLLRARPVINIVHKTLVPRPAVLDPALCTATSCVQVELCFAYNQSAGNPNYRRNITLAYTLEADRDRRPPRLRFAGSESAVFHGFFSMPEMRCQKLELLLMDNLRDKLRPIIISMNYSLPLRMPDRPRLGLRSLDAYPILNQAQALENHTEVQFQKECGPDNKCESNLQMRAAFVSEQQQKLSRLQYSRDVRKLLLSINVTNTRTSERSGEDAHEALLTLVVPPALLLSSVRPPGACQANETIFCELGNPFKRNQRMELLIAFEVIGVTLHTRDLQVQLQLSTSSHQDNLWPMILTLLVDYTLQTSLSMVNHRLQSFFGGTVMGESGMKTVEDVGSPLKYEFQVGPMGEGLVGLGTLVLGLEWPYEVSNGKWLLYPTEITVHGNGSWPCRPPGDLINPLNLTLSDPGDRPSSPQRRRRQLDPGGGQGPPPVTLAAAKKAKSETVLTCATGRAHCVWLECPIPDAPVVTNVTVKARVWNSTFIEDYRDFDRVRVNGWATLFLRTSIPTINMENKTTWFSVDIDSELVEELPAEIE
integrin alpha3beta1 (Homo sapiens), sequence (P05556 21-728, chain 2 of 2, further chain): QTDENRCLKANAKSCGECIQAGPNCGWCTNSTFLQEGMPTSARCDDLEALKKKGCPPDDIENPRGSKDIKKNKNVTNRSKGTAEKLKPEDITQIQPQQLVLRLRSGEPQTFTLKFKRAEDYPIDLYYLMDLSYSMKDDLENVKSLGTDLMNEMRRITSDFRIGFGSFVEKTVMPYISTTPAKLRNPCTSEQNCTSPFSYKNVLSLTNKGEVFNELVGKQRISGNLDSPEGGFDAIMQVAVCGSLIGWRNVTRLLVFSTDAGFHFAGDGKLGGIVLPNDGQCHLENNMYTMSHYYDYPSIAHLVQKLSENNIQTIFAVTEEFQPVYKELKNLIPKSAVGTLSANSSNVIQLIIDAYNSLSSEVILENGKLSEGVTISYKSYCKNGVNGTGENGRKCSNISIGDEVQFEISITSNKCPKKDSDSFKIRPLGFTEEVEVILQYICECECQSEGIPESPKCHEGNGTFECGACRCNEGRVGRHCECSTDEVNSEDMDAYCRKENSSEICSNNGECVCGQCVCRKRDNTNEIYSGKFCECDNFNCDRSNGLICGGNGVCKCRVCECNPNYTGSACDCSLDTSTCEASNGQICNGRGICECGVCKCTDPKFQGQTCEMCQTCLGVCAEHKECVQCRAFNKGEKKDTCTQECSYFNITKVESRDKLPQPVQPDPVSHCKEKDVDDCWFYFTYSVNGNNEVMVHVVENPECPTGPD

Integrin α3β1, sequence (P26006 33-1051, chain 1 of 2): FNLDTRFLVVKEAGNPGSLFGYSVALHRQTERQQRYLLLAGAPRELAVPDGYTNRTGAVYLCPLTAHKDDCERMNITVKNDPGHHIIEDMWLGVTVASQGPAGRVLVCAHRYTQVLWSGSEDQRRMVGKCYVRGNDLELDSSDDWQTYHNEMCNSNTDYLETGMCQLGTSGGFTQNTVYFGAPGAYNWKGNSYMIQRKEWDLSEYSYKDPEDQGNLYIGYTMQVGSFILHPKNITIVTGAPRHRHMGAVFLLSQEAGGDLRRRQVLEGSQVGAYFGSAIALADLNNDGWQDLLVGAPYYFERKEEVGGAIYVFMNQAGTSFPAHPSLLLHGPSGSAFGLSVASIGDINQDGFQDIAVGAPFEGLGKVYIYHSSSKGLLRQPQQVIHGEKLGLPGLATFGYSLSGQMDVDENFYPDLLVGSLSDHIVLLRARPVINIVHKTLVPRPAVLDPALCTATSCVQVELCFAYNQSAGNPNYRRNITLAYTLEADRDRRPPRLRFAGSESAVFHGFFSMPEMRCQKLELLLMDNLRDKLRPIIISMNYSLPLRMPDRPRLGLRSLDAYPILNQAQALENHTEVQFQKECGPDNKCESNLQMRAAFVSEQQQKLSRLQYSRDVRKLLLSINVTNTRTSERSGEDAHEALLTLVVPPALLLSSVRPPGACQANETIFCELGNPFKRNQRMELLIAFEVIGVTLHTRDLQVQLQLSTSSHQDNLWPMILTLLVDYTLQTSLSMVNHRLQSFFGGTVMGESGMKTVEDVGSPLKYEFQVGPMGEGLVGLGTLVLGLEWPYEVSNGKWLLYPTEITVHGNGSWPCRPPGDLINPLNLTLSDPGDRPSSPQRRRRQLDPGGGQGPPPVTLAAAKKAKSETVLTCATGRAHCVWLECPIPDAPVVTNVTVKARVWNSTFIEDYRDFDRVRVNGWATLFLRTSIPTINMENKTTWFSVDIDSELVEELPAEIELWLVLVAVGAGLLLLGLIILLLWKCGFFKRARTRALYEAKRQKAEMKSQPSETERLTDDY
Integrin α3β1, sequence (P05556 21-728, chain 2 of 2, further chain): as the sequence (P05556 21-728, chain 2 of 2, further chain) above
TIMP-2, sequence (P16035 27-220): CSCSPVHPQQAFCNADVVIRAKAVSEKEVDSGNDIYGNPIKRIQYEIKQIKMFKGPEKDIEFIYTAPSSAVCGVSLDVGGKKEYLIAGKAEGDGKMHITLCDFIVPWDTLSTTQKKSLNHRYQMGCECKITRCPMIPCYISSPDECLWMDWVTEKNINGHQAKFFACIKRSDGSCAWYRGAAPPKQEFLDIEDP

“Ala+TIMP-2 (from UniProt P16035 27-220) (natural protein)” gave an inhibition of VEGF-A-stimulated (10 ng/mL) growth of hMVECs, 100 nM protein with Integrin α3β1 of 75%.

As a reminder, the pKd is −log10 of the Kd, conventionally taken in molar units. As for TIMP-2 (from UniProt P16035), the negative-log Kd (pKd) in assay [1] was 9.05.
